According to patent US20140087995A1 (published 2014):
Numbered stars: 1 amine (or outer) side, 2 acyl side, 3 side chain; on linkers, the order of the positions; unused ones are H or OH. Bridge positions count the residues as written; N and C are the ends. Side chains are listed from the residue outwards. Ends that are not written are not given here. * marks the point of attachment. C20 diacid = O=C(O)CCCCCCCCCCCCCCCCCCC(=O)*; γGlu = O=C(O)[C@H](CCC(=O)[*:2])N[*:1]

T1: human amylin receptor (amylin 3(a) receptor: human calcitonin receptor with RAMP-3) (human, UniProt P30988 25-474; O60896 24-148)
T1 construct: whole, on cells; Assay used cell membranes of the Amylin 3(a)/CRE-luc BHK cells, not intact cells; also called hAmylin-R; hAmylinR
T1 sequence (looked up) 1: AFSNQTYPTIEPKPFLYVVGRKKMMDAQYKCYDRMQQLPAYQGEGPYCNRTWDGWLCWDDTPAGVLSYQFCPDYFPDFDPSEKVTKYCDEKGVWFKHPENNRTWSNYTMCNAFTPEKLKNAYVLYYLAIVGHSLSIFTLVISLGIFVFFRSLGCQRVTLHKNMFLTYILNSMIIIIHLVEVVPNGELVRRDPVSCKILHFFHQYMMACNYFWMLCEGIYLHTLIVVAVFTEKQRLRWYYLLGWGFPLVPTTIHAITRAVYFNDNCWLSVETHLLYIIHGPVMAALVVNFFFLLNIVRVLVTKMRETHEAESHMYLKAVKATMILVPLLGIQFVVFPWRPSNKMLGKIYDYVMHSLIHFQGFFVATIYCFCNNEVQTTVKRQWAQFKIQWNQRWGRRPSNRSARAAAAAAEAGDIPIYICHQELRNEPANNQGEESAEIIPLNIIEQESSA
T1 sequence (looked up) 2: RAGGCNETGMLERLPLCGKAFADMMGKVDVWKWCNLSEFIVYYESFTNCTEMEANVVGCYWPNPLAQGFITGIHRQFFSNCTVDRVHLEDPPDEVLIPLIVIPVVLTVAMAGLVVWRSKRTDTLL

T2: human calcitonin receptor (human, UniProt P30988 25-474)
T2 construct: whole, on cells; Assay used cell membranes, not intact cells; also called hCTR; hCT
T2 sequence (looked up): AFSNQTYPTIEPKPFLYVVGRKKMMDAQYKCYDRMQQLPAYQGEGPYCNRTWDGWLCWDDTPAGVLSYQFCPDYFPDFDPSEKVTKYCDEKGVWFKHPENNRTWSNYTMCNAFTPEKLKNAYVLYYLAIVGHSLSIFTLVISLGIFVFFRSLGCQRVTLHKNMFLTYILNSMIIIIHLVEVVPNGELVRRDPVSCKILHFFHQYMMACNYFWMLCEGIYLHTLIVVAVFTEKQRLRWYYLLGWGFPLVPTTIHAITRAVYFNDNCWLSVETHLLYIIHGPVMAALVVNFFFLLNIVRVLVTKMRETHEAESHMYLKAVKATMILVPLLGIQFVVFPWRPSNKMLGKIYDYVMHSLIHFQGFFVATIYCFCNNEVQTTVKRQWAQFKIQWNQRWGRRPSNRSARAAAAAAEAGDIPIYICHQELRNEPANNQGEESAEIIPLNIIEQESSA


Assays:
[1] = biological target: T1, human amylin receptor (amylin 3(a) …); test: SPA competition with 125I-rat amylin on membranes of BHK cells with human calcitonin receptor and RAMP-3 (Assay V)
How it was run: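 Cell membranes were prepared by homogenisation in Na-HEPES/EDTA buffer, pH 7.4, and stored at −80° C. They were then coupled to SPA beads at 35 ng/μL final and exposed to compounds in assay buffer containing CaCl2, MgCl₂, OA and Tween20. After 120 min at 25° C, plates were counted and IC₅₀ derived.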

[2] = biological target: T2, human calcitonin receptor; test: SPA competition with 125I-calcitonin on membranes of BHK cells with human calcitonin receptor (Assay VII)
How it was run: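 BHK hCTR membranes 35 ng/μL + SPA beads 0.05 mg/well; buffer 50 mM Hepes pH 7.4, 1 mM CaCl2, 5 mM MgCl₂, 0.1% OA, 0.02% Tween20. 120 min, 25° C., shaking. Scintillation count; IC50 by one-site binding competition.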

[3] = biological target: T2, human calcitonin receptor; test: ratio IC50 hCTR / IC50 hAmylin-R (reference: human amylin receptor), SPA competition assays
How it was run: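 IC₅₀ values were derived by one-site competition analysis of SPA counts. Cell membranes (35 ng/μL) with SPA beads were incubated with test compounds for 120 min at 25° C in Hepes buffer, pH 7.4, containing CaCl2, MgCl₂, OA and Tween20.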

Row | IC50 [1] | IC50 [2] | Ratio hCT/hAmylin binding [3] | Binder
1 | 0.082 nM | 2.04 nM | 24.8 | K([γGlu-C20 diacid])CNTATCATQRLAHFLRHSSPNFGAIPSSTPVGPNTY-NH2 (disulfide 2-7; N-terminus assumed; SMILES CC[C@H](C)[C@H](NC(=O)[C@H](C)NC(=O)CNC(=O)[C@H](Cc1ccccc1)NC(=O)[C@H](CC(N)=O)NC(=O)[C@@H]1CCCN1C(=O)[C@H](CO)NC(=O)[C@H](CO)NC(=O)[C@H](Cc1c[nH]cn1)NC(=O)[C@H](CCCNC(=N)N)NC(=O)[C@H](CC(C)C)NC(=O)[C@H](Cc1ccccc1)NC(=O)[C@H](Cc1c[nH]cn1)NC(=O)[C@H](C)NC(=O)[C@H](CC(C)C)NC(=O)[C@H](CCCNC(=N)N)NC(=O)[C@H](CCC(N)=O)NC(=O)[C@@H](NC(=O)[C@H](C)NC(=O)[C@@H]1CSSC[C@H](NC(=O)[C@@H](N)CCCCNC(=O)CC[C@H](NC(=O)CCCCCCCCCCCCCCCCCCC(=O)O)C(=O)O)C(=O)N[C@@H](CC(N)=O)C(=O)N[C@@H]([C@@H](C)O)C(=O)N[C@@H](C)C(=O)N[C@@H]([C@@H](C)O)C(=O)N1)[C@@H](C)O)C(=O)N1CCC[C@H]1C(=O)N[C@@H](CO)C(=O)N[C@@H](CO)C(=O)N[C@H](C(=O)N1CCC[C@H]1C(=O)N[C@H](C(=O)NCC(=O)N1CCC[C@H]1C(=O)N[C@@H](CC(N)=O)C(=O)N[C@H](C(=O)N[C@@H](Cc1ccc(O)cc1)C(N)=O)[C@@H](C)O)C(C)C)[C@@H](C)O)
2 | 0.833 nM | 133 nM | 159 | K([γGlu-γGlu-C20 diacid])CNTATCATQRLANFLRHSSPNFGAIPSSTNVGHNTY-NH2 (disulfide 2-7; N-terminus assumed; SMILES CC[C@H](C)[C@H](NC(=O)[C@H](C)NC(=O)CNC(=O)[C@H](Cc1ccccc1)NC(=O)[C@H](CC(N)=O)NC(=O)[C@@H]1CCCN1C(=O)[C@H](CO)NC(=O)[C@H](CO)NC(=O)[C@H](Cc1c[nH]cn1)NC(=O)[C@H](CCCNC(=N)N)NC(=O)[C@H](CC(C)C)NC(=O)[C@H](Cc1ccccc1)NC(=O)[C@H](CC(N)=O)NC(=O)[C@H](C)NC(=O)[C@H](CC(C)C)NC(=O)[C@H](CCCNC(=N)N)NC(=O)[C@H](CCC(N)=O)NC(=O)[C@@H](NC(=O)[C@H](C)NC(=O)[C@@H]1CSSC[C@H](NC(=O)[C@@H](N)CCCCNC(=O)CC[C@H](NC(=O)CC[C@H](NC(=O)CCCCCCCCCCCCCCCCCCC(=O)O)C(=O)O)C(=O)O)C(=O)N[C@@H](CC(N)=O)C(=O)N[C@@H]([C@@H](C)O)C(=O)N[C@@H](C)C(=O)N[C@@H]([C@@H](C)O)C(=O)N1)[C@@H](C)O)C(=O)N1CCC[C@H]1C(=O)N[C@@H](CO)C(=O)N[C@@H](CO)C(=O)N[C@H](C(=O)N[C@@H](CC(N)=O)C(=O)N[C@H](C(=O)NCC(=O)N[C@@H](Cc1c[nH]cn1)C(=O)N[C@@H](CC(N)=O)C(=O)N[C@H](C(=O)N[C@@H](Cc1ccc(O)cc1)C(N)=O)[C@@H](C)O)C(C)C)[C@@H](C)O, also called compound 86)
